Reference: paper PMC4372114
Several values for one entry are separate records, joined by “and”; a condition that tells them apart may be missing. Equal entries are not always repeated.

Target: Recombinant human vascular endothelial growth factor receptor (VEGFR) (human) (UniProt P35968)
Test: SPR

UniProt P35968, sequence (P35968 20-764): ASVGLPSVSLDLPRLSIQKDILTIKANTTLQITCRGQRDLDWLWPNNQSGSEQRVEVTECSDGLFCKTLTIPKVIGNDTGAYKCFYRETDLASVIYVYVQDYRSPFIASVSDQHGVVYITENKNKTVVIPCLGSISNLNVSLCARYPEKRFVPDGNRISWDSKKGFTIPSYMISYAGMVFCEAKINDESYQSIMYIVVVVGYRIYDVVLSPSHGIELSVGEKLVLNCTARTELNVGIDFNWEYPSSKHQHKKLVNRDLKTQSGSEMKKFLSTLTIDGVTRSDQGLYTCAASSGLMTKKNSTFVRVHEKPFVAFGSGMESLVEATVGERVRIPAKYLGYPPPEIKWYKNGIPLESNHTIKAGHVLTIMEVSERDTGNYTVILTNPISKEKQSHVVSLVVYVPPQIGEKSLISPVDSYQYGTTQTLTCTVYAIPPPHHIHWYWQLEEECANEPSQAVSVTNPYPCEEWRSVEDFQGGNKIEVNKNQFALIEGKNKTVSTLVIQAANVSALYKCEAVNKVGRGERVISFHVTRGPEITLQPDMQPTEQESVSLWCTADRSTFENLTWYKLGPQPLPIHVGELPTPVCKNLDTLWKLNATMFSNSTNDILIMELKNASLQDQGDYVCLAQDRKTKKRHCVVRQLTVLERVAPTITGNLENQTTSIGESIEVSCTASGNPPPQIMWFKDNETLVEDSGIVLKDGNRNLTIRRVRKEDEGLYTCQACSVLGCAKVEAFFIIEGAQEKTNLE

Substance | SPR baseline shift | kon
Recombinant human vascular endothelial growth factor (VEGF) (from UniProt P15692 1-395) (ligand) | 60.2 mDeg and 69.3 mDeg and 57.4 mDeg | 83000 M⁻¹ s⁻¹ and 91000 M⁻¹ s⁻¹ and 82000 M⁻¹ s⁻¹
VEGF released from living SKOV-3 cells (from UniProt P15692 1-395) (ligand) | 104 mDeg and 106 mDeg and 113 mDeg | 
